Assay results taken from patent US20260308278 (published 2026).
Positions count from the first letter of the chain named.

B1: P1AH1205 (antibody, V domains shown)
VH: KVQLVESGGGLVQPGGSLRLSCAASGFKWEHYAMSWVRQAPGKGLEWVGSISPRGDHKYYNTKFIDRFTISRDNDKNTLYLQMNSLRAEDTAVYYCARDWDYFDRWGQGTLVTVSS
VL: AIQMTQSPSSLSASVGDRVTITCQSQFWLSNYLAWYQQKPGKAPKLLIFDGDLPYERPSRFSGSGSHDEYTLTISSLQPEDFATYYCQQYREEPYTFGQGTKLEIK
B2: P1AG9372 (antibody, V domains shown)
VH: EVQLVESGGGLVQPGGSLRLSCAASGFRFDIYAMSWVRQAPGKGLEWVGEISPDGRTKYYNTKFIDRFTISRDNEKNTLYLQMNSLRAEDTAVYYCARDWEYFDNWGQGTLVTVSS
VL: B1 VL
B3: P1AG9426 (antibody, V domains shown)
VH: B2 VH with E1Q, R28K, F29Y, I31V, D54R, R56D, T57S
VL: B1 VL with S25A, Q26S, F27Y, L53I, R57I, D68E, E93T
B4: P1AH1199 (antibody, V domains shown)
VH: B2 VH with E1Q, R28K, F29Y, I31V, D54R, R56D, T57S
VL: B1 VL with S25A, Q26S, F27Y, L53I, Y55W, R57I, D68E, E92D, E93T
B5: P1AG9420 (antibody, V domains shown)
VH: B1 VH with K1R, K28R, W29Y, E30D, D56N, N74D, D75E, R105H
VL: B1 VL with S25A, Q26S, F27Y, L53I, R57I, D68E, E93T
B6: P1AG9391 (antibody, V domains shown)
VH: B2 VH with E1Q, R28K, F29Y, I31V, D54R, R56D, T57S
VL: B1 VL with S25A, Q26S, F27Y, L53I, Y55W, R57I, D68E, E92D, E93T
B7: P1AG9376 (antibody, V domains shown)
VH: B1 VH
VL: B1 VL
B8: P1AH1205 full Fab (antibody)
chain 1: KVQLVESGGGLVQPGGSLRLSCAASGFKWEHYAMSWVRQAPGKGLEWVGSISPRGDHKYYNTKFIDRFTISRDNDKNTLYLQMNSLRAEDTAVYYCARDWDYFDRWGQGTLVTVSSASTKGPSVFPLAPSSKSTSGGTAALGCLVKDYFPEPVTVSWNSGALTSGVHTFPAVLQSSGLYSLSSVVTVPSSSLGTQTYICNVNHKPSNTKVDKKVEPKSCD
chain 2: AIQMTQSPSSLSASVGDRVTITCQSQFWLSNYLAWYQQKPGKAPKLLIFDGDLPYERPSRFSGSGSHDEYTLTISSLQPEDFATYYCQQYREEPYTFGQGTKLEIKRTVAAPSVFIFPPSDEQLKSGTASVVCLLNNFYPREAKVQWKVDNALQSGNSQESVTEQDSKDSTYSLSSTLTLSKADYEKHKVYACEVTHQGLSSPVTKSFNRGEC
B9: P1AG9391 full IgG (antibody)
chain 1: QVQLVESGGGLVQPGGSLRLSCAASGFKYDVYAMSWVRQAPGKGLEWVGEISPRGDSKYYNTKFIDRFTISRDNEKNTLYLQMNSLRAEDTAVYYCARDWEYFDNWGQGTLVTVSSASTKGPSVFPLAPSSKSTSGGTAALGCLVKDYFPEPVTVSWNSGALTSGVHTFPAVLQSSGLYSLSSVVTVPSSSLGTQTYICNVNHKPSNTKVDKKVEPKSCDKTHTCPPCPAPEAAGGPSVFLFPPKPKDTLMASRTPEVTCVVVDVSHEDPEVKFNWYVDGVEVHNAKTKPREEQYNSTYRVVSVLTVLAQDWLNGKEYKCKVSNKALGAPIEKTISKAKGQPREPQVYTLPPSRDELTKNQVSLTCLVKGFYPSDIAVEWESNGQPENNYKTTPPVLDSDGSFFLYSKLTVDKSRWQQGNVFSCSVMHEALHNAYTQKSLSLSP
chain 2: B8 chain 2 with S25A, Q26S, F27Y, L53I, Y55W, R57I, D68E, E92D, E93T
B10: P1AG9376 full IgG (antibody)
chain 1: B9 chain 1 with Q1K, Y29W, D30E, V31H, E50S, S57H, E75D, E101D, N105R
chain 2: B8 chain 2
B11: P1AG9372 full IgG (antibody)
chain 1: B9 chain 1 with Q1E, K28R, Y29F, V31I, R54D, D56R, S57T
chain 2: B8 chain 2
B12: P1AG9426 full IgG (antibody)
chain 1: B9 chain 1
chain 2: B8 chain 2 with S25A, Q26S, F27Y, L53I, R57I, D68E, E93T
B13: P1AH1199 full Fab (antibody)
chain 1: B8 chain 1 with K1Q, W29Y, E30D, H31V, S50E, H57S, D75E, D101E, R105N
chain 2: B8 chain 2 with S25A, Q26S, F27Y, L53I, Y55W, R57I, D68E, E92D, E93T

biological target: T1, human C3bBb (Bb from FB D279G/K350N/M458I) (human); assay: SPR, 37C
T1 sequence (P01024 23-1663, chain 1 of 2): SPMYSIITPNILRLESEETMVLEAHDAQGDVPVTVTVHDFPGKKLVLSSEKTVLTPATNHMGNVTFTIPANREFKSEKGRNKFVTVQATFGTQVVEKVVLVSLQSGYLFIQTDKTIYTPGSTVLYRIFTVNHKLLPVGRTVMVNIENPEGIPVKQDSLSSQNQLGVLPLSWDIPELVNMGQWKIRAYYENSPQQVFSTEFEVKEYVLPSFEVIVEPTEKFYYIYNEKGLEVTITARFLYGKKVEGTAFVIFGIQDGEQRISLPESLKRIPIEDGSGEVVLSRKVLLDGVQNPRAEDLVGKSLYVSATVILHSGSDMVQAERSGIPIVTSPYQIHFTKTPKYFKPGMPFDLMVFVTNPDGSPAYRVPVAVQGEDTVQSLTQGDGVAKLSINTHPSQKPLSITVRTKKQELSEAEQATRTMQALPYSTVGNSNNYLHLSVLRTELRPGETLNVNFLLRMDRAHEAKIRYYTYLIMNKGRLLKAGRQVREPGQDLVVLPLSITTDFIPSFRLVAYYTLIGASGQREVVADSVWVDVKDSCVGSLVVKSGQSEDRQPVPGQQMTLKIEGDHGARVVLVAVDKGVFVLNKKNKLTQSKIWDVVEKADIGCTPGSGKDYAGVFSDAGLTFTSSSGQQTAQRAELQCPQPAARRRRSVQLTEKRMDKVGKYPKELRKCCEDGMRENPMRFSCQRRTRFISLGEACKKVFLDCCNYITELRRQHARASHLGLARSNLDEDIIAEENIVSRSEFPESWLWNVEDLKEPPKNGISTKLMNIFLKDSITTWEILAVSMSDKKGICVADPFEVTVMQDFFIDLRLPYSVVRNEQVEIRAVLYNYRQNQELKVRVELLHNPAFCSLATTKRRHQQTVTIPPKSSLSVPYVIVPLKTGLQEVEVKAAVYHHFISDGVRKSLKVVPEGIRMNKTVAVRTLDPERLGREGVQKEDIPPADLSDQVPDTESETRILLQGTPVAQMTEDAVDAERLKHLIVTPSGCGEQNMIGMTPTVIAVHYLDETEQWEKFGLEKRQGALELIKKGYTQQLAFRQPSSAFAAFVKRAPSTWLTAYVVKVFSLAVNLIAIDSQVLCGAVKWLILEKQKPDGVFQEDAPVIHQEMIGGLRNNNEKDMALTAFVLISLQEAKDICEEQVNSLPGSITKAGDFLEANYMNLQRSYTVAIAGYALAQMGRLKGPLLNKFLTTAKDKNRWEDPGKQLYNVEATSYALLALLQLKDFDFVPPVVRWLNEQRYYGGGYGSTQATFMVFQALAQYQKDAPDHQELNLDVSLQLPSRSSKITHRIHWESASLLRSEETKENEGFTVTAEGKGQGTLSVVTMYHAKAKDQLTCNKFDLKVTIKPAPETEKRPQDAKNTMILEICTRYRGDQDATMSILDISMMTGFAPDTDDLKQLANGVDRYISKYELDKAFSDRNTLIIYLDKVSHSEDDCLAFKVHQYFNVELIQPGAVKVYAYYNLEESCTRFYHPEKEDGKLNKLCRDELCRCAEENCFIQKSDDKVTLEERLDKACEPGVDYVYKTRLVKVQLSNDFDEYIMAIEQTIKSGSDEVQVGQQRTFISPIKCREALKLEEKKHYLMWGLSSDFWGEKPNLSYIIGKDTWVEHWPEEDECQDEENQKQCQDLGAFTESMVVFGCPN
T1 sequence (P00751 260-764 D279G/K350N/M458I, chain 2 of 2, further chain): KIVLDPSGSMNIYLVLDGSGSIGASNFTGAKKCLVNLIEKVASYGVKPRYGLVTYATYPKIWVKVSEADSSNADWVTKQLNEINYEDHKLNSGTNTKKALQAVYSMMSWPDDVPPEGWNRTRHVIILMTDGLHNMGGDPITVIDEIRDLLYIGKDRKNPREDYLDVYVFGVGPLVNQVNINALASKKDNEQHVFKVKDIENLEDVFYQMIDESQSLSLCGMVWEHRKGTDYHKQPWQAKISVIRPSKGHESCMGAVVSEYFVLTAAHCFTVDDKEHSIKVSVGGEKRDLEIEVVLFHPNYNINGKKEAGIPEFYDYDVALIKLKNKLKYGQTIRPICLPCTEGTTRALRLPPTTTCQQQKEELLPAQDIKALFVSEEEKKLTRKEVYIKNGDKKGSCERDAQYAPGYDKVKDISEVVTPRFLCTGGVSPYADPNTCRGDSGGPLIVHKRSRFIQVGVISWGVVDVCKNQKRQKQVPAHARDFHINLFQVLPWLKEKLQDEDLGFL

**Q.** B1 was tested. Which Kd did it give?
**A.** The Kd was 95 pM.

**Q.** Which Kd does the source give for B2 here?
**A.** The Kd was 11.6 pM.

**Q.** For B3, which Kd is on record?
**A.** The Kd was 14 pM.

**Q.** How did the Kd turn out when B4 was run?
**A.** The Kd was 200 pM.

**Q.** For B5, which Kd is on record?
**A.** Its Kd is 11 pM.

**Q.** With B6 as the binder, how does the Kd read?
**A.** Its Kd is 1.6 pM.

**Q.** Which Kd does the source give for B7 here?
**A.** The Kd was < 1 pM.

biological target: T1, human C3bBb (Bb from FB …); assay: SPR, 25C

**Q.** With B1 as the binder, how does the Kd read?
**A.** Its Kd is 16 pM.

**Q.** For B2, which Kd is on record?
**A.** Its Kd is < 1 pM.

**Q.** With B3 as the binder, how does the Kd read?
**A.** Its Kd is < 1 pM.

**Q.** Which Kd does the source give for B4 here?
**A.** The Kd was 30 pM.

**Q.** How did the Kd turn out when B5 was run?
**A.** The Kd was < 1 pM.

**Q.** Which Kd does the source give for B6 here?
**A.** Its Kd is < 1 pM.

**Q.** With B7 as the binder, how does the Kd read?
**A.** Its Kd is < 1 pM.

biological target: scFcRn (human, UniProt P55899); assay: SPR, pH 6.0, 25C
Sequence (P55899 24-297, chain 1 of 2): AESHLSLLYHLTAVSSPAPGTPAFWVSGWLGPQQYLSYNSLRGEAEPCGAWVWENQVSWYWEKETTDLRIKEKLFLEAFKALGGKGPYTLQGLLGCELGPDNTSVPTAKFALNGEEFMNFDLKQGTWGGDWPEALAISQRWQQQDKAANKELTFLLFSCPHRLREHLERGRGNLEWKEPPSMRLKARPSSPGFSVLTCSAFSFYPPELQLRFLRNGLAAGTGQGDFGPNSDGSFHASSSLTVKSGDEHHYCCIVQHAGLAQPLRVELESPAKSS
Sequence (chain, as listed by the source, chain 2 of 2): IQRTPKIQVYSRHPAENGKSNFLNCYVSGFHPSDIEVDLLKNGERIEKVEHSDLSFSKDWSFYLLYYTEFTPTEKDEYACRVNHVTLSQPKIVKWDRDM

**Q.** Does B8 bind?
**A.** Result: no binding

**Q.** Does B9 bind?
**A.** Result: no binding

**Q.** Does B10 bind?
**A.** Result: no binding

**Q.** Does B11 bind?
**A.** Result: no binding

**Q.** Does B12 bind?
**A.** Result: no binding

**Q.** Does B13 bind?
**A.** Result: no binding
